# Measured values reported in patent US12366576B2, “Compositions, assays, and methods for direct modulation of fatty acid metabolism” (Dana-Farber Cancer Institute, Inc., priority 2016, dated 2025).
# Bridge positions count the residues as written; N and C are the ends. Square brackets hold non-standard residues; d marks the D form. Ends that are not written are not given here. S5 = C=CCCC[C@](C)(N)C(=O)O
# Tests used:
# VLCAD = target: T1, VLCAD (Homo sapiens, UniProt P49748); assay: 19F NMR binding study with fluorinated SAHB; conditions: fluorinated SAHB 25 μM, VLCAD 0-125 μM
# T1 construct: 10x His (N); made in house; host or cells: E. coli BL21(DE3), pET19b
# T1 sequence (P49748 40-655): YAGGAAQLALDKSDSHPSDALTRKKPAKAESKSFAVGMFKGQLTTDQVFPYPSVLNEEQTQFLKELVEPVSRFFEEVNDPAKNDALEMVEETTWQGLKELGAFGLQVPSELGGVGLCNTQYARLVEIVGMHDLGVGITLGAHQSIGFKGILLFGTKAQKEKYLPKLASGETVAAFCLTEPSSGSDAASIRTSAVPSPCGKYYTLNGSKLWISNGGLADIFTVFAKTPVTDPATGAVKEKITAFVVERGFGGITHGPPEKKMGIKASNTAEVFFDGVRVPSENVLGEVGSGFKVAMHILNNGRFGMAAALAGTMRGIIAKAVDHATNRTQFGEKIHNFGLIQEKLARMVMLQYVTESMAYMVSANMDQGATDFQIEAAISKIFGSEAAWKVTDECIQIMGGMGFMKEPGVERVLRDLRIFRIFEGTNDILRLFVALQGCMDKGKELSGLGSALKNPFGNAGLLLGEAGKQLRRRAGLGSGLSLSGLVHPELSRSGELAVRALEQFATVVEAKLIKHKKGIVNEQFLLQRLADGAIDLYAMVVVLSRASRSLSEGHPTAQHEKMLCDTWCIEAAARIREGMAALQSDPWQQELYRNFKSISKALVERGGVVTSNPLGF
# Experimental: To measure the direct binding interaction, ^19F NMR binding studies were conducted using fluorinated analogs of MCL-1 SAHBD. […] Both SAHBs, however, bind MCL-1ΔNΔC, as illustrated by a chemical shift of the peptide NMR peak in both cases (FIG. 15). […] To perform these experiments, N-terminal Btn-PEG analogs of the peptides were immobilized onto streptavidin probes that were then placed into protein solutions at a variety of concentrations to measure ligand-target association.
# VLCAD. Mature human VLCAD lacking its cleavable leader sequence (aa 40-655) (NP_000009.1) was subcloned into the pET19b vector (Novagen) using NdeI and XhoI restriction sites. Correct insertion was confirmed by DNA sequencing. […]
# To determine binding of SAHBs to VLCAD, fluorinated SAHB (25 μM) and VLCAD (0-125 μM) were mixed together in VLCAD FPLC buffer including 10% D2O to a final volume of 500 μL. […] The extent to which VLCAD bound the peptide was determined by measuring the peak width at half height (ν1/2) of the peptide ^19F signal. […] MCL-1ΔNΔC binding to SAHBs causes a change in the ^19F chemical shift of the peptide resulting in two peptide signals (instead of peak broadening), so extent of binding was quantified by measuring the peak height of “unbound” peptide relative to the bound peptide signal.
# Mcl-1^F/F CreER^T2 cells = conditions: vehicle and tamoxifen exposed cells; except at the highest dose applied (100 μM)
# MCL-1ΔNΔC = target: T2, MCL-1ΔNΔC (Homo sapiens, UniProt Q07820); assay: Biolayer interferometry; assay type: binding; conditions: Biotin-PEG peptide immobilized on streptavidin sensors
# T2 construct: The MCL-1ΔNΔC construct was grown and expressed in E. coli as previously described; made in house; host or cells: E. coli BL21(DE3)
# T2 sequence (Q07820 172-320 limits assumed, stated change not applied): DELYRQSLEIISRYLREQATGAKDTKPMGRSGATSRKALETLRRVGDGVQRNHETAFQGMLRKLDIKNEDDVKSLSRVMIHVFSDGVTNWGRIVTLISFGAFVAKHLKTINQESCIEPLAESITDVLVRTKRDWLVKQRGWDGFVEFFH
substance,measurement,setting,value
"MCL-1 SAHBD: hydrocarbon-stapled peptide mimicking the MCL-1 BH3 domain (Stabilized Alpha-Helix of BCL-2 Domain), SEQ ID NO:19 (RKALETLRRVGDGV[S5]RNH[S5]TAF; staple 15-19)",19F NMR peptide peak broadening on VLCAD titration,VLCAD,"peak broadens, indicative of a direct binding event"
same,cytotoxicity (cell viability),Mcl-1^F/F CreER^T2 cells,Essentially no cytotoxicity
same,biolayer interferometry association with MCL-1,MCL-1ΔNΔC,bind to MCL-1
